Measurements reported in IntAct's records for PubMed 9874765.

Target: cir1_human CIR1 (UniProt Q86X95)
Sequence (Q86X95 whole entry): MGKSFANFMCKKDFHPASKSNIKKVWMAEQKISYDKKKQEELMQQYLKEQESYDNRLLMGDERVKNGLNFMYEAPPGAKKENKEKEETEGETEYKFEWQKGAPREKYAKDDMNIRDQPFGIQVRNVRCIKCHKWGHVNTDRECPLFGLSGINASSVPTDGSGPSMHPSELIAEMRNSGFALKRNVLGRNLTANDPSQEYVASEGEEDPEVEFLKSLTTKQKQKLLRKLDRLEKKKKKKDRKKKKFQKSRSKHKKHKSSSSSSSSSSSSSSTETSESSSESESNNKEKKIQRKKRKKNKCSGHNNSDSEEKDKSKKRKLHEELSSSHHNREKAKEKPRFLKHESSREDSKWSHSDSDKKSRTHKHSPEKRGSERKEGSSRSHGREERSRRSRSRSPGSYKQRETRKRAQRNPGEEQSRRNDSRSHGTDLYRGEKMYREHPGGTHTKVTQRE

Recombining binding protein suppressor of hairless (Homo sapiens), Q06330 K249A;L250A;V251A, sequence (Q06330 whole entry K249A/L250A/V251A): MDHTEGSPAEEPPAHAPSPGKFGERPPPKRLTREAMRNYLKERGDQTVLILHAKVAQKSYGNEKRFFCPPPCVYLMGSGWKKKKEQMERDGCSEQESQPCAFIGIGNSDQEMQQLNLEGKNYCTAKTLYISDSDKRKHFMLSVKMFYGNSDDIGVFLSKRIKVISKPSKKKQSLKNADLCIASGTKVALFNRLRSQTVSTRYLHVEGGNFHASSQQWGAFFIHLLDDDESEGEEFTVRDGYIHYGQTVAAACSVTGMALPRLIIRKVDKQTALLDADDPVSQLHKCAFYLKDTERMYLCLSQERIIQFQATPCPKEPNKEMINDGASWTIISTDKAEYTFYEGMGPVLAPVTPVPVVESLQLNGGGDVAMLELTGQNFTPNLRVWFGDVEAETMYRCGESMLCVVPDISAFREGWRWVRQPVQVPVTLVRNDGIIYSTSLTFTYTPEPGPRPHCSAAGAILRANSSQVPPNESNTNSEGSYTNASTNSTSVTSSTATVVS
Recombining binding protein suppressor of hairless (Homo sapiens), Q06330 E233A;E234A;F235A, sequence (Q06330 whole entry E233A/E234A/F235A): as the sequence (Q06330 whole entry K249A/L250A/V251A) above, with E233A, E234A, F235A, A249K, A250L, A251V counted along it

| effect of a mutation on the interaction | Substance |
| --- | --- |
| disrupting interaction strength | Recombining binding protein suppressor of hairless (Homo sapiens), Q06330 E233A;E234A;F235A |
| disrupting interaction strength | Recombining binding protein suppressor of hairless (Homo sapiens), Q06330 K249A;L250A;V251A |
